Assay results from patent US7981602B2, “Photoproteins with enhanced bioluminescence and assays using the same” (AXXAM S.R.L., priority 2005, dated 2011).

B1: 12mutCly: mutant Clytin photoprotein 12mutCly (SEQ ID NO: 19), expressed in CHOK1 cells (protein)
chain: MADTASKYAVKLRPNFDNPKWVNRHKFMFNFLDINGDGKITLDEIVSKASDDICAKLEATPEQTKRHQVCVEAFFRGCGMEYGKEIAFPQFLDGWKQLATSELKKWARNEPTLIREWGDAVFDIFDKDGSGSISLDEWKAYGRISGICSSDEDAEKTFKHCDLDNSGKLDVDEMTRQHLGFWYTLDPNADGLYGNFVP
B2: 25N03b: mutant Clytin photoprotein from random mutagenesis, clone 25N03b (sequence ID no 16) (protein)
chain: MADTASKYAVKLRPNFDNPKWVNRHKFMFNFLDINGDGKITLDEIVSKASDDICAKLGATPEQTKRHQDAVEAFFKKIGMDYGKEVEFPAFVDGWKELANYDLKLWSQNKKSLIRDWGEAVFDIFDKDGSGSISLDEWKAYCRISGICSSDEDAEKTFKHCDLDNSGKLDVDEMTRQHLGFWYTLDPNADGLYGNFVP

Tests used:
[1] = tested on: CHOK1/mito12mutCly cell line; assay: ATP-stimulated luminescence in CHOK1/mito12mutCly cell line (CCD camera); format: cell-based; settings: ATP stimulation, 2.5 or 5 μM coelenterazine
Procedure: Clone Selection Process: • CHO-K1 were transfected with pcDNA3Neo^−/MITO-hMutated-clytin or pcDNA3Neo^−/CYTO-hMutated-clytin. • 48 h after transfection, the transfected cells were plated in 10×96 w/p in complete DMEM. • At confluence the 10×96 w/p were duplicated in 10 white plates. 3 1/2 hours before measurements, medium was replaced with 50 μl/well of tyrode (2 mM Ca^2+ and coelenterazine 10 μM). • Positive clones were selected evaluating: • First selection was done lysing cells with TRITON X-100. CCD camera conditions: low sensitivity, integration time 1 second reading for 5 seconds. • Five clones were chosen each diluted in 3×96 w/p. • At confluence the 15×96 w/p were duplicated in 15 white plates. […] CCD camera conditions: low sensitivity, integration time 1 second reading for 30 seconds for the ATP measurement followed by 30 seconds for TRITON X-100. • Four limiting dilutions of the best clone selected were performed, 0.3 cells per well in 10×96 w/p. • The final clone was chosen after the 4th LD selected with ATP 0.25 μM, coelenterazine 5 μM. • Complete optimization of the assay was performed on the best responding clone.
CHO cells are seeded at different cell densities in 384MTP (500, 750, 1,000, 1,500 cells/well) in growth media supplemented as above and measured with a CCD camera 24 hours and 48 hours after plating. […]

[2] = In vitro transcription and translation, light emission upon calcium injection; format: biochemical; settings: translation mixture, 5 μM CaCl2 injected, luminescence recorded 10 seconds; comparison among the 8 mutants (FIG. 2)
Procedure: Translation of the photoproteins was carried out in the rabbit reticulocyte cell-free system (TNT Quick coupled kit, Promega), following the general instructions of the supplier. 500 ng of DNA was used for each in vitro transcription/translation reaction mix. The reaction volume (10 μl) included 8 μl of TNT T7 Quick Master Mix, 1.6 μl of DNA, 0.2 μl of the Methionine buffer and 0.2 μl of Coelenterazine (0.5 mM). To this end, 5 μl from each sample of the translation mixture were tested for light emission by the injection of calcium solution and by measuring at the Ascent Luminoskan (Labsystems).
5 μl of the translation mixture were directly mixed with 95 μl of PBS solution in a 96 well plate which was mounted into the Luminometer (Berthold). To trigger photoprotein light emission, a 5 μM CaCl2 solution was injected into the well and luminescence recorded for 10 seconds.

[3] = Recombinant photoprotein light emission upon 1 mM calcium injection; format: biochemical; settings: 1 mM CaCl2 (FIG. 6)
Procedure: For the production of the recombinant protein we followed a small scale protein purification protocol under native conditions. Due to the presence of an N-terminal His tag in our constructs, we decided to purify the expressed proteins on Ni-NTA Spin Columns (Qiagen) following the suppliers' protocol.
In order to evaluate the response of the photoprotein to different calcium concentrations, 0.05 ng/well (96 MTP) of the recombinant protein were charged with Coelenterazine 10 μM overnight at 4° C.
After incubation, different concentrations of CaCl2 were injected and the light released was measured at the Ascent Luminoskan with an integration time of 20 ms for a total time of 10 seconds.
Recombinant photoproteins corresponding to some mutants were produced under native conditions following a small scale purification protocol.
In another experiment, the recombinant photoprotein 25N03b was compared to recombinant Aequorin.

| Molecule | light emission and sensitivity to Ca2+ in cells [1] | light emission of in vitro translated mutants upon calcium injection [2] | light emission recorded upon 1 mM CaCl2 injection, compared to recombinant Aequorin [3] |
| --- | --- | --- | --- |
| B1 | high light emission and sensitivity to Ca^2+ |  |  |
| B2 |  | best responding mutant | surprisingly higher |
